T1: H36A
T1 construct: also called hCD27 H36A
T1 receptor: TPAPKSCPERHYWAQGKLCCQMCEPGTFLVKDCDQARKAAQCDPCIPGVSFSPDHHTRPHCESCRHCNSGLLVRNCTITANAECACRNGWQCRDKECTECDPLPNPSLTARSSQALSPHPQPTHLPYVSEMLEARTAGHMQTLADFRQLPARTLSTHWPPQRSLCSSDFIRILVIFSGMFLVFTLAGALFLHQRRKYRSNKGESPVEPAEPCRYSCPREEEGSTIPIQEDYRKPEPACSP

T2: D43A
T2 construct: also called hCD27 D43A
T2 receptor: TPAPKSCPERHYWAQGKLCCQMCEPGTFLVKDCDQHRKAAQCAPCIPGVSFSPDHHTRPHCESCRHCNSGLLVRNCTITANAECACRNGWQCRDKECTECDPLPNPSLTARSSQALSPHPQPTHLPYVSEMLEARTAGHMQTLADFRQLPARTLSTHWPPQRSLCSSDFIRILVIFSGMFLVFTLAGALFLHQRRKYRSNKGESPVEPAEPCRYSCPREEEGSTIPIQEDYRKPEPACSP

T3: N88A
T3 construct: also called hCD27 N88A
T3 receptor: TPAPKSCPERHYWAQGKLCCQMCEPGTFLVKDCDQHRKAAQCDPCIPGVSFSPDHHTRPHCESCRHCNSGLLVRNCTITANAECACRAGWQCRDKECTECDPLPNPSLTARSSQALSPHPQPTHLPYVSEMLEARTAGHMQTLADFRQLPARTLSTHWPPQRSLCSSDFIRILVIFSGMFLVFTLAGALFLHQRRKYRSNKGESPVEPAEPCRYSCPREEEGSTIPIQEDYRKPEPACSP

T4: G89A
T4 construct: also called hCD27 G89A
T4 receptor: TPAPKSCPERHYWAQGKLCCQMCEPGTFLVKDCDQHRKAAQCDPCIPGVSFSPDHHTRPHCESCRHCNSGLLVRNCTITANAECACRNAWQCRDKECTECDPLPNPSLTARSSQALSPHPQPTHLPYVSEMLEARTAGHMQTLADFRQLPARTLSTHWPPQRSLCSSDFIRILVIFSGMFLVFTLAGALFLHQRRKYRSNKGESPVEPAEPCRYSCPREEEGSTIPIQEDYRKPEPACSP

T5: K17A
T5 construct: also called hCD27 K17A
T5 receptor: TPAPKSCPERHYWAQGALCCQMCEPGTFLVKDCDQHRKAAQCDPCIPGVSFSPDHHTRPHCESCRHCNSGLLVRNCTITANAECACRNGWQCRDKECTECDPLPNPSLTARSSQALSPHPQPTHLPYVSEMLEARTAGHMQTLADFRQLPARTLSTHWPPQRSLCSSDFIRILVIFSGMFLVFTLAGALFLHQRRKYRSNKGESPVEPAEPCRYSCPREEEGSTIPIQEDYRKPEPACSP

T6: K38A
T6 construct: also called hCD27 K38A
T6 receptor: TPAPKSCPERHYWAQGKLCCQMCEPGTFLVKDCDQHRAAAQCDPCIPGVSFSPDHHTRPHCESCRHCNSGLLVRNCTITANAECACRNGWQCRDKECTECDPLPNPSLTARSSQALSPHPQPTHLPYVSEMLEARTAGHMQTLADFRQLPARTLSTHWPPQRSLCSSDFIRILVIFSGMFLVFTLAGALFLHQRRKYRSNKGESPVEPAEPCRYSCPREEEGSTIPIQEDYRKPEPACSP

T7: P44A
T7 construct: also called hCD27 P44A
T7 receptor: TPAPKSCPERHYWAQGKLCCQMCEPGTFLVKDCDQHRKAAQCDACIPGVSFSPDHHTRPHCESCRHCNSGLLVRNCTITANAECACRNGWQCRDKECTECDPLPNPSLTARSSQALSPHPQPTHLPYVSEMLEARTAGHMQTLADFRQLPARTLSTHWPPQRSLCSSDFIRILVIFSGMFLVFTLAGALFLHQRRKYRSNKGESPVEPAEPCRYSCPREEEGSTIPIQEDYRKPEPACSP

T8: S63A
T8 construct: also called hCD27 S63A
T8 receptor: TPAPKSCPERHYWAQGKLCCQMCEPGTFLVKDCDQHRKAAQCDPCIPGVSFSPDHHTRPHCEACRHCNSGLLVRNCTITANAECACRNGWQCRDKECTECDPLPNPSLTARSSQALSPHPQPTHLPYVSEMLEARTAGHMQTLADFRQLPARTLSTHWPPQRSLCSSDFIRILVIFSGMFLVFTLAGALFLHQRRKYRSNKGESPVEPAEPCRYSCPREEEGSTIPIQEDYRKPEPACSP

T9: W90A
T9 construct: also called hCD27 W90A
T9 receptor: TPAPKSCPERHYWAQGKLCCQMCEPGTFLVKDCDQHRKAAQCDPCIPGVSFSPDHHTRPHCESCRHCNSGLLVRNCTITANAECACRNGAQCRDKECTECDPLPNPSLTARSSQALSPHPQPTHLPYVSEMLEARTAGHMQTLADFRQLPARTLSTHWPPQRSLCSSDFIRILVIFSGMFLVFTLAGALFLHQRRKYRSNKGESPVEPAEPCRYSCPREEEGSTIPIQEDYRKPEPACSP

T10: P8A
T10 construct: also called hCD27 P8A
T10 receptor: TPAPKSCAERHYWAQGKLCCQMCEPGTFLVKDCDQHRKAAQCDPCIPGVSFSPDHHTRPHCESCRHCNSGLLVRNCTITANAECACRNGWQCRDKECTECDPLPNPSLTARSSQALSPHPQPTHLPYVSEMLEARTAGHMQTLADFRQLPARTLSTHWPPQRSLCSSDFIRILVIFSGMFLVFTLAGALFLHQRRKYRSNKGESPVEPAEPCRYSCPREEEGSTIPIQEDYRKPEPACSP


Tests used:
H36A = target: T1, H36A; experiment: flow cytometry, CHO-K1; sub-column 1 of 2
D43A = target: T2, D43A; experiment: flow cytometry, CHO-K1; sub-column 1 of 2
N88A [1] = target: T3, N88A; experiment: flow cytometry, CHO-K1; sub-column 1 of 2
G89A = target: T4, G89A; experiment: flow cytometry, CHO-K1; sub-column 1 of 2
K17A = target: T5, K17A; experiment: flow cytometry, CHO-K1; sub-column 2 of 2
K38A = target: T6, K38A; experiment: flow cytometry, CHO-K1; sub-column 2 of 2
P44A = target: T7, P44A; experiment: flow cytometry, CHO-K1; sub-column 2 of 2
S63A = target: T8, S63A; experiment: flow cytometry, CHO-K1; sub-column 2 of 2
N88A [2] = target: T3, N88A; experiment: flow cytometry, CHO-K1; sub-column 2 of 2
W90A = target: T9, W90A; experiment: flow cytometry, CHO-K1; sub-column 2 of 2
P8A = target: T10, P8A; experiment: flow cytometry, CHO-K1; sub-column 2 of 2

% of WT hCD27 binding (geo mean FITC) (H36A) | % of WT hCD27 binding (geo mean FITC) (D43A) | % of WT hCD27 binding (geo mean FITC) (N88A [1]) | % of WT hCD27 binding (geo mean FITC) (G89A) | % of WT hCD27 binding (geo mean FITC) (K17A) | % of WT hCD27 binding (geo mean FITC) (K38A) | % of WT hCD27 binding (geo mean FITC) (P44A) | % of WT hCD27 binding (geo mean FITC) (S63A) | % of WT hCD27 binding (geo mean FITC) (N88A [2]) | % of WT hCD27 binding (geo mean FITC) (W90A) | % of WT hCD27 binding (geo mean FITC) (P8A) | Molecule
111% | 195% | 154% | 100% | 6.8% | 97.7% | 90.5% | 163% | 116% | 96.4% | 79.1% | 1A4 (mouse IgG1) (antibody)
88.5% | 201% | 153% | 116% | 106% | 31.6% | 91.7% | 149% | 104% | 85.7% | 62.2% | 9F4 (mouse IgG2a) (antibody)
54.1% | 194% | 162% | 113% | 126% | 11.8% | 91% | 141% | 124% | 102% | 15.9% | Antibody hCD27.131A (mouse parental 131A) (antibody, V domains shown, mouse IgG1; also called mouse hCD27.131A) VH: QIQLVQSGPELKKPGETVKISCKASGYTFTNYGMNWVKQAPGKGLKWMGWINTNTGEPTYAEEFKGRFAFSLETSATTAYLQINNLKNEDTATYFCAREGDAMDYWGQGTSVTVSS VL: QIVLTQSPAIMSASPGEKVTMTCSASSSVSYMHWYQQKSGTSPKRWIYDTSKLASGVPARFSGSGSGTSYSLTISSMEAEDAATYYCQQWNSYPFTFGSGTKLEIK
